Article PMC6494814, “Kremen1-induced cell death is regulated by homo- and heterodimerization” (Cell Death Discovery, 2019)

B1: Kremen1 (Krm1), full length, Flag-tagged or HA-tagged (receptor, UniProt Q99N43 20-473, looked up)
chain: ARPAPGPRSGPECFTANGADYRGTQSWTALQGGKPCLFWNETFQHPYNTLKYPNGEGGLGEHNYCRNPDGDVSPWCYVAEHEDGVYWKYCEIPACQMPGNLGCYKDHGNPPPLTGTSKTSNKLTIQTCISFCRSQRFKFAGMESGYACFCGNNPDYWKHGEAASTECNSVCFGDHTQPCGGDGRIILFDTLVGACGGNYSAMAAVVYSPDFPDTYATGRVCYWTIRVPGASRIHFNFTLFDIRDSADMVELLDGYTHRVLVRLSGRSRPPLSFNVSLDFVILYFFSDRINQAQGFAVLYQATKEEPPQERPAVNQTLAEVITEQANLSVSAAHSSKVLYVITPSPSHPPQTAPGSHSWAPSVGANSHRVEGWTVYGLATLLILTVTAVVAKILLHVTFKSHRVPASGDLRDCRQPGASGDIWTIFYEPSTTISIFKKKLKGQSQQDDRNPLVSD
notes: Kremen1 (Krm1), transmembrane receptor, full length; Two differently tagged copies of the same full-length protein (Flag-Krm1, HA-Krm1), each with ONE tag, written as one molecule for the self-association; In rows with truncated Krm1 or with Krm2 the Flag-tagged copy is the bait; Vector pCAG-IRES-EGFP or pCS2; also called Flag-Krm1; HA-Krm1; source: HEK293T, transfected, in lysate; not shown: …

Columns and labels:
[1] = target: the molecule itself; experiment: cross-linking; HEK293T cells transfected with HA-Krm1 and Flag-Krm1, 0.2 mM BS3 (non cell-permeant) on ice for 30 min prior to lysis; straight western blots and anti-Flag immunoprecipitation with anti-HA blot
[2] = target: B1; experiment: cell-based or functional assay

Binder | stoichiometry N [1] | proportion of cleaved Caspase-3+ cells among HA+ HEK293T cells transfected with HA-Krm1 and either GFP or Krm1secECD; the pair interfered with is Krm1 with Krm1 (dimerization) [2] [fold decrease]
B1 | 2 | –
HA-Krm1secECD, secreted ectodomain of Krm1 (lacks the transmembrane and intracellular domains) (domain or fragment, UniProt Q99N43 21-392, looked up) RPAPGPRSGPECFTANGADYRGTQSWTALQGGKPCLFWNETFQHPYNTLKYPNGEGGLGEHNYCRNPDGDVSPWCYVAEHEDGVYWKYCEIPACQMPGNLGCYKDHGNPPPLTGTSKTSNKLTIQTCISFCRSQRFKFAGMESGYACFCGNNPDYWKHGEAASTECNSVCFGDHTQPCGGDGRIILFDTLVGACGGNYSAMAAVVYSPDFPDTYATGRVCYWTIRVPGASRIHFNFTLFDIRDSADMVELLDGYTHRVLVRLSGRSRPPLSFNVSLDFVILYFFSDRINQAQGFAVLYQATKEEPPQERPAVNQTLAEVITEQANLSVSAAHSSKVLYVITPSPSHPPQTAPGSHSWAPSVGANSHRVEGWT | – | 2
